Measurements taken from PMC9385667, “Structural basis for proton coupled cystine transport by cystinosin” (Nature Communications, 2022).

Tests used:
[1] = target: T1, Arabidopsis thaliana cystinosin (plant cystinosin) (Arabidopsis thaliana, UniProt P57758); assay: pyranine proton-flux transport assay in proteoliposomes; assay type: biochemical; conditions: 500 μM substrate, pH 7.2, 25 °C, valinomycin / K+ gradient
T1 construct: gene At5g40670; codon-optimised gene expressed in Saccharomyces cerevisiae BJ5460 as cleavable C-terminal GFP-His fusion; tag cut with TEV protease; DDM-purified; reconstituted in POPE:POPG liposomes for transport
T1 sequence (P57758 1-270): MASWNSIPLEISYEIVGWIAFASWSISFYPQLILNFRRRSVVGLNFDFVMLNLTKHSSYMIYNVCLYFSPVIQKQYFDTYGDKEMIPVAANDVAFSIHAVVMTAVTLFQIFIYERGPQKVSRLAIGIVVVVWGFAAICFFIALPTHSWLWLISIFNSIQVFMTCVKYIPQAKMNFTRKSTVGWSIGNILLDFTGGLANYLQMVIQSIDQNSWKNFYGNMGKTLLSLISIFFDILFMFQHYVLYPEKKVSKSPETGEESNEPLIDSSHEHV

[2] = test system: T2, N[C@@H](CSSC[C@H](N)C(=O)O)C(=O)O; assay: two-electrode voltage clamp in Xenopus laevis oocytes; assay type: cell-based, Homo sapiens; conditions: pH 5, -40 mV, ND-96, proton-coupled transport
T2 construct: no GFP; plasma membrane of Xenopus laevis oocytes

[3] = target: T3, Arabidopsis thaliana cystinosin (plant cystinosin) (Arabidopsis thaliana, UniProt P57758, W24F); assay: nanoDSF tryptophan fluorescence quench, DDM-purified protein; assay type: binding; conditions: 3.2 mM L-cystine, 10 μM protein, pH 7.2, 25 °C
T3 construct: gene At5g40670; codon-optimised gene expressed in Saccharomyces cerevisiae BJ5460 as cleavable C-terminal GFP-His fusion; tag cut with TEV protease; DDM-purified; reconstituted in POPE:POPG liposomes for transport
T3 sequence (P57758 1-270 W24F): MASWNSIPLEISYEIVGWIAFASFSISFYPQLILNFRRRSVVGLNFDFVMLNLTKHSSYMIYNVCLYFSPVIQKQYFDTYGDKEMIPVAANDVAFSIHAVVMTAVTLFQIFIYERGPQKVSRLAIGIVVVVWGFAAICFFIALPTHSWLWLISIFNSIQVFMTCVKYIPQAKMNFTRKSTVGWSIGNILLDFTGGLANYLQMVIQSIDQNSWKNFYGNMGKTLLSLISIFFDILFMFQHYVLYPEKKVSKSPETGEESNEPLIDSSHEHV

[4] = target: T1, Arabidopsis thaliana cystinosin (plant cystinosin); assay: X-ray crystal structure, […] Å; conditions: complex with sybody Syb39; lipidic cubic phase; central binding site, inward-open state
[5] = target: T4, Arabidopsis thaliana cystinosin (plant cystinosin) (Arabidopsis thaliana, UniProt P57758, P169G); assay: nanoDSF tryptophan fluorescence quench, DDM-purified protein; assay type: binding; conditions: 3.2 mM L-cystine, 10 μM protein, pH 7.2, 25 °C
T4 construct: gene At5g40670; codon-optimised gene expressed in Saccharomyces cerevisiae BJ5460 as cleavable C-terminal GFP-His fusion; tag cut with TEV protease; DDM-purified; reconstituted in POPE:POPG liposomes for transport
T4 sequence (P57758 1-270 P169G): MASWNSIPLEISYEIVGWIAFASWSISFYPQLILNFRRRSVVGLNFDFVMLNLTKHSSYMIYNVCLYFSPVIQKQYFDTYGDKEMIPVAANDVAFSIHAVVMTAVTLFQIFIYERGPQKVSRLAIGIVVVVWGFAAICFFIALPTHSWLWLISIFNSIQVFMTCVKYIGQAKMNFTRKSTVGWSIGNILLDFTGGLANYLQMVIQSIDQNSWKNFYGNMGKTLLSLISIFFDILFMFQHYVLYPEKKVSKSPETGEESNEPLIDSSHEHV

[6] = target: T5, Arabidopsis thaliana cystinosin (plant cystinosin) (Arabidopsis thaliana, UniProt P57758, S228A); assay: as above; assay type: binding; conditions: 3.2 mM L-cystine, 10 μM protein, pH 7.2, 25 °C
T5 construct: gene At5g40670; codon-optimised gene expressed in Saccharomyces cerevisiae BJ5460 as cleavable C-terminal GFP-His fusion; tag cut with TEV protease; DDM-purified; reconstituted in POPE:POPG liposomes for transport
T5 sequence (P57758 1-270 S228A): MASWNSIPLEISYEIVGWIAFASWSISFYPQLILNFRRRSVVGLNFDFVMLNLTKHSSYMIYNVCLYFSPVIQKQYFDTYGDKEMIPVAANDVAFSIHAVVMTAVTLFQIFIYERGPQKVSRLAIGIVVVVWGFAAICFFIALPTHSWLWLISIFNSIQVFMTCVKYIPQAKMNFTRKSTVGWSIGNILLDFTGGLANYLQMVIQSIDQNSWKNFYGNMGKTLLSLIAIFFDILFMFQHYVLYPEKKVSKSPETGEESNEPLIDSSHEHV

[7] = target: T6, Arabidopsis thaliana cystinosin (Arabidopsis thaliana, UniProt P57758); assay: crystal structure; apo cystinosin with Syb39 and Nb4, lipidic cubic phase (monoolein), 20 °C, 2.65 Å, PDB 7ZK1; conditions: both partners purified
T6 construct: cystinosin from Arabidopsis thaliana, Uniprot P57758; codon-optimised synthetic gene in pDDGFP-Leu2d; also called plant cystinosin; the transporter; source: Saccharomyces cerevisiae BJ5460, purified in DDM (Ni-NTA, TEV cleavage, reverse IMAC, Superdex 200)

[8] = target: T7, Arabidopsis thaliana cystinosin (Arabidopsis thaliana, UniProt P57758 1-270); assay: BLI
T7 chain: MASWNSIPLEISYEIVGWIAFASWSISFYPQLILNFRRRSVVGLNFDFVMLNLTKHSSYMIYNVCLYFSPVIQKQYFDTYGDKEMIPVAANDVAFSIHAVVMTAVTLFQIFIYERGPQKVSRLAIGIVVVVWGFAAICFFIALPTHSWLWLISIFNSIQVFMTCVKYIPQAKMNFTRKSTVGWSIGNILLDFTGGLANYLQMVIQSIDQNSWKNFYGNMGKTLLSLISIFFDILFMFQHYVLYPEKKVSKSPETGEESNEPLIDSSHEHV

[9] = target: T6, Arabidopsis thaliana cystinosin; assay: crystal structure; apo cystinosin with Nb1 and Nb4, lipidic cubic phase, 2.33 Å, PDB 7ZKZ; conditions: both partners purified
[10] = substrate: N[C@@H](CSSC[C@H](N)C(=O)O)C(=O)O; assay: pyranine proton-flux transport assay in proteoliposomes; assay type: biochemical, Arabidopsis thaliana; conditions: pH 7.2 both sides, 25 °C, valinomycin / K+ gradient
[11] = substrate: N[C@@H](CSSC[C@H](N)C(=O)O)C(=O)O; assay: two-electrode voltage clamp in Xenopus laevis oocytes; assay type: cell-based, Homo sapiens; conditions: pH 5, -40 mV, ND-96, proton-coupled transport

Molecule: N[C@@H](CSS(=O)(=O)C[C@H](N)C(=O)O)C(=O)O [L-cystine-S,S-dioxide]
- transport, % of WT levels at 500 μM [1]: ~ 80%

Molecule: human cystinosin (WT) (Homo sapiens; DEL362-367)
- Km [2]: 117 ± 2.4 µM

Molecule: N[C@@H](CSSC[C@H](N)C(=O)O)C(=O)O [L-cystine]
- % loss of binding relative to WT [3]: ~ 50%
- X-ray crystal structure, 3.37 Å [4]: we determined the structure of the ligand bound state in complex with Syb39
- nanoDSF tryptophan fluorescence quench, DDM-purified protein [5]: it still retains WT levels of L-cystine binding
- % loss of binding relative to WT [6]: ~ 50%

B1: sybody 39 (VHH)
VHH: QVQLVESGGGLVQAGGSLRLSCAASGFPVYRNRMHWYRQAPGKEREWVAAIESAGQETHYADSVKGRFTISRDNAKNTVYLQMNSLKPEDTAVYYCNVKDEGWYWQTYDYWGQGTQVTVSA
notes: synthetic nanobody selected from the loop library; also called Syb39
- binding result [7]: binds
- Kd [8]: 760 nM

B2: Nb1 (VHH)
VHH: QVQLVESGGGSAQPGGSLRLSCAVSGSVSELNTMGWFRQAPGKQRELVARITATSDATNYADSVKGRFTISRDNGWNTVYLQSNSLKPEDSAVYYCNVEGAPSWFSGIRSYWGQGTQVTVSS
notes: llama nanobody
- Kd [8]: 189 nM
- binding result [9]: binds

B3: Arabidopsis thaliana cystinosin (plant cystinosin) (Arabidopsis thaliana) (protein)
chain: MASWNSIPLEISYEIVGWIAFASWSISFYPQLILNFRRRSVVGLNFDFVMLNLTKHSSYMIYNVCLYFSPVIQKQYFDTYGDKEMIPVAANDVAFSIHAVVMTAVTLFQIFIYERGPQKVSRLAIGIVVVVWGFAAICFFIALPTHSWLWLISIFNSIQVFMTCVKYIPQAKMNFTRKSTVGWSIGNILLDFTGGLANYLQMVIQSIDQNSWKNFYGNMGKTLLSLISIFFDILFMFQHYVLYPEKKVSKSPETGEESNEPLIDSSHEHV
notes: codon-optimised gene expressed in Saccharomyces cerevisiae BJ5460 as cleavable C-terminal GFP-His fusion; tag cut with TEV protease; DDM-purified; reconstituted in POPE:POPG liposomes for transport
- Km ([10]; proton-coupled symport): 19 ± 2.9 µM

B4: Arabidopsis thaliana cystinosin (plant cystinosin) (Arabidopsis thaliana; Y167F) (protein)
chain: MASWNSIPLEISYEIVGWIAFASWSISFYPQLILNFRRRSVVGLNFDFVMLNLTKHSSYMIYNVCLYFSPVIQKQYFDTYGDKEMIPVAANDVAFSIHAVVMTAVTLFQIFIYERGPQKVSRLAIGIVVVVWGFAAICFFIALPTHSWLWLISIFNSIQVFMTCVKFIPQAKMNFTRKSTVGWSIGNILLDFTGGLANYLQMVIQSIDQNSWKNFYGNMGKTLLSLISIFFDILFMFQHYVLYPEKKVSKSPETGEESNEPLIDSSHEHV
notes: as for B3
- Km [10]: 73.3 ± 12.8 µM

B5: Nb4 (VHH)
VHH: QVQLVESGGGLVQAGGSLRLSCAASGRTITPISTYVMGWFRQDPGKEREFVASISWNGANTYYADSVKGRFTISRDNAKNTVYLQMNSLKPEDTAVYYCAADPESHVRLRLGVGAYWGRGTQVTVSS
notes: llama nanobody; also called llama derived nanobody (Nb4)
- Kd [8]: 90 nM
- binding result [9]: binds

B6: human cystinosin Δ2-115 variant (ΔN) (Homo sapiens; DEL2-115) (protein)
chain: MLVIRSSAISIINQVIGWIYFVAWSISFYPQVIMNWRRKSVIGLSFDFVALNLTGFVAYSVFNIGLLWVPYIKEQFLLKYPNGVNPVNSNDVFFSLHAVVLTLIIIVQCCLYERGGQRVSWPAIGFLVLAWLFAFVTMIVAAVGVTTWLQFLFCFSYIKLAVTLVKYFPQAYMNFYYKSTEGWSIGNVLLDFTGGSFSLLQMFLQSYNNDQWTLIFGDPTKFGLGVFSIVFDVVFFIQHFCLYRKRP
notes: no GFP; Xenopus laevis oocytes
- Km [11]: 117 ± 28.9 µM
